In paper PMC6403468 one finds rFRET data, which are given here for 1 substance.

The assay has as its target VLDLR fused to monomeric GFP (VLDLR_mGFP) (mouse). Put plainly: FRET or BRET; time-resolved fluorescence anisotropy imaging (TR-FAIM, homo-FRET) of mGFP-tagged proteins in living HEK293 cells, rFRET from global fit, Imaging Medium; basal state, and before and after 1 uM AP20187, FL-Reelin or R3-6 (up to 90 nM).

“VLDLR fused to monomeric GFP (VLDLR_mGFP) (receptor)” showed a rFRET of 0.0858.
